From US9670514B2, “Method for producing polysaccharide” (SANYO CHEMICAL INDUSTRIES, LTD., priority 2011, dated 2017)

B1: arginine kinase aqueous solution (D4-1-3): arginine kinase, SEQ ID NO: 9, derived from Toxoplasma gondii (protein, listed as Toxoplasma gondii)
chain: MLSAASPALARKSFDFRGSALRHFSSSGGHRGSSDTKISPGHSDKSGEPLDLPVFTSTKQIATIGPASWDYEEIERLFLAGVDVFRLNMSHGLLTEKHQQLLHVRHLEKVYKHPIAVLADLPGPKFRLGVFNNDEATLETGKSFILDSSTQPGDASRVQLPHPEILSVLRPDDIVLMDDGKVKLRVTEVFADTTALSRGLGDIESVSHTASPGSSVVRAPAVRCTVLVGGRISSKKGVNVPSARLPISALSARDRELARTVASWGVDWIALSFVQSADDVHELRRELREAAEAAGSTTAQYAAEQNRSESHVDRGDASGAGCRIRPDISVMVKIEKPIALENIAEIVAAADGIMVARGDLGVELPNIAWLPRVQKRLVSLCREAGKPVVVATQMLESMMQAPLPTRAEVSDVANAVYDGADAVMLSGETAAGNAPARVACMQRLGIEGVENDPSFWELEDQRRQARLRAAERCASTGTSALRVPRASKGREQELEKGSELQGESRDRTEEILSRFLPGRREHLAFSEADRQGNTSGDTNQGTSKTEQGADESDAWVEHTAAAVARQSGAKAIVVFGENEALLQRLATLRPTAPVLAVTECVHTARRLKMYWGIYPVLLEAEDQANVESRARRPASLDDQLRLACEFARKEKFATESTDNLVVLGRLPGGRENGTNSDKTTARLTRPILTVCTLESGR
modifications: aqueous solution
B2: nucleoside diphosphate kinase aqueous solution (D4-1-2): nucleoside diphosphate kinase, SEQ ID NO: 8, derived from rat pancreas (protein)
chain: LSGIAVAFLLLLLCYHRSSGPRIQVANPHNWRMVHQVAGELYNDTYPLTPPLRTPEGLRYHIAIIADLDTDSRSAKANTWVSYLKRGYLTLSSSGDHVAVEWEKEDIVLETHLAEKGRGMELSELIVFNGKLYSVDDRTGVVYRIEGSKAVPWVILTDGDGTVGKGFKAEWLAVKDEQLYVGGLGKEWTTTSGVVLNENPEWVKVIGPRGDTQHHNWVSNYNQLRSAAGIQPPGYLIHESAAWSDSLKSWFFLPRRASQEQYSEKEDEKRGSNILLRATPDFSDIKMSHVGTLNPTHGFSSFKFIPGTDDQIIVALKSEEDNGKVATYITAFTLDGRILLPETKVGNVKYEGIEFI
modifications: Rat pancreas
B3: apyrase aqueous solution (D2-1): apyrase, SEQ ID NO: 7, derived from xenopus (protein, listed as Xenopus laevis)
chain: MKSPQVECKESMSPLRISVAGLPVLASMTKTADPRFRPRWRAILLSGIAVAFLLLLLCYHRSSGPRIQVANPHNWRMVHQVAGELYNDTYPLTPPLRTPEGLRYHIAIIADLDTDSRSAKANTWVSYLKRGYLTLSSSGDHVAVEWEKEDIVLETHLAEKGRGMELSELIVFNGKLYSVDDRTGVVYRIEGSKAVPWVILTDGDGTVGKGFKAEWLAVKDEQLYVGGLGKEWTTTSGVVLNENPEWVKVIGPRGDTQHHNWVSNYNQLRSAAGIQPPGYLIHESAAWSDSLKSWFFLPRRASQEQYSEKEDEKRGSNILLRATPDFSDIKMSHVGTLNPTHGFSSFKFIPGTDDQIIVALKSEEDNGKVATYITAFTLDGRILLPETKVGNVKYEGIEFI
B4: nucleotidase aqueous solution (D3-1): nucleotidase, SEQ ID NO: 5, derived from Escherichia coli (protein, listed as Escherichia coli)
chain: MKQSHFFAHLSRLKLINRWPLMRNVRTENVSEHSLQVAMVAHALAAIKNRKFGGNVNAERIALLAMYHDASEVLTGDLPTPVKYFNSQIAQEYKAIEKIAQQKLVDMVPEELRDIFAPLIDEHAYSDEEKSLVKQADALCAYLKCLEELAAGNNEFLLAKTRLEATLEARRSQEMDYFMEIFVPSFHLSLDEISQDSPL
B5: ribonucleotide diphosphate reductase aqueous solution (D6-1): ribonucleotide diphosphate reductase, SEQ ID NO: 3, derived from Corynebacterium glutamicus (protein, listed as Corynebacterium glutamicum)
chain: MAADSDLSVHDAYLKEHVAPVKAINWNSIPDSKDLEVWDRLTGNFWLPEKVPVSNDIKSWGTLNEVEKAATMRVFTGLTLLDTIQGTVGAISLLPDADSLHEEAVLTNIAFMESVHAKSYSNIFMTLASTAEINDAFRWSEENENLQRKAKIILSYYEGDDPLKRKIASVILESFLFYSGFYLPMYWSSHSKLTNTADVIRLIIRDEAVHGYYIGYKYQKAVAKETPERQEELKEYTFDLLYDLYDNETQYSEDLYDDLGWTEDVKRFLRYIANKALNNLGYEGLFPADETKVSPNILSALSPNADENHDFFSGSGSSYVIGKAENTEDDDWDF

What was measured:
[1] = Specific activity of ribonucleoside diphosphate conversion enzyme solutions (TLC, UV 260 nm); type: biochemical; conditions: 1 mM uridine diphosphate, 30° C., pH 7.0, with the co-substrate of each enzyme
Protocol: Reaction solution (2) was prepared by adding 10 μL of 1 M sucrose aqueous solution and 10 μL of sucrose synthase aqueous solution (D7-1) to 1 mL of aqueous solution R (50 mM phosphate buffer (pH of 7.0) containing 100 mM sodium chloride, 10 mM magnesium chloride, and 1 mM uridine diphosphate). Three such reaction solutions (2) were prepared and allowed to react at 30° C. for 5 minutes, 10 minutes, and 15 minutes, respectively. As for the amount of compound (C-7) as the reaction product (uridine diphosphate-glucose), the reaction product was developed on TLC (PEI-Cellulose plate available from Sigma-Aldrich Corporation, hereinafter the same) (developing solvent: an aqueous solution containing 1 M LiCl and 1 M formic acid, hereinafter the same), and detected with a UV light (260 nm). The specific activity of sucrose synthase aqueous solution (D7-1) was calculated to be 0.3 U/μL from the relationship between the yield of compound (C-7) and the reaction time.
Reaction solution (3) was prepared by adding 0.1 mg of reduced thioredoxin and 10 μL of ribonucleotide diphosphate reductase aqueous solution (D6-1) to 1 mL of aqueous solution R. Three such reaction solutions (3) were prepared and allowed to react at 30° C. for 5 minutes, 10 minutes, and 15 minutes, respectively. As for the amount of compound (C-6) as the reaction product (deoxyuridine diphosphate), the reaction product was developed on TLC and detected with a UV light (260 nm). The specific activity of ribonucleotide diphosphate reductase aqueous solution (D6-1) was calculated to be 0.3 U/μL from the relationship between the yield of compound (C-6) and the reaction time.
Reaction solution (4) was prepared by adding 10 μL of 1 M monopotassium phosphoenolpyruvate aqueous solution (available from Wako Pure Chemical Industries, Ltd.) and 10 μL of pyruvate kinase aqueous solution (D4-1-1) to 1 mL of aqueous solution R. Three such reaction solutions (4) were prepared and allowed to react at 30° C. for 5 minutes, 10 minutes, and 15 minutes, respectively. For the amount of compound (C-4) as the reaction product (uridine triphosphate), the reaction product was developed on TLC and detected with a UV light (260 nm). The specific activity of pyruvate kinase aqueous solution (D4-1-1) was calculated to be 0.3 U/μL from the relationship between the yield of compound (C-4) and the reaction time.
Reaction solution (5) was prepared by adding 10 μL of nucleotidase aqueous solution (D3-1) to 1 mL of aqueous solution R. Three such reaction solutions (5) were prepared and allowed to react at 30° C. for 5 minutes, 10 minutes, and 15 minutes, respectively. For the amount of compound (C-3) as the reaction product (uridine monophosphate), the reaction product was developed on TLC and detected with a UV light (260 nm). The specific activity of nucleotidase aqueous solution (D3-1) was calculated to be 0.3 U/μL from the relationship between the yield of compound (C-3) and the reaction time.
Reaction solution (6) was prepared by adding 1 mg of polyuridine (product name “polyuridylic acid potassium salt” available from Sigma-Aldrich Corporation) and 10 μL of polyribonucleotide nucleotidyltransferase aqueous solution (D5-1) to 1 mL of aqueous solution R. Three such reaction solutions (6) were prepared and allowed to react at 30° C. for 5 minutes, 10 minutes, and 15 minutes, respectively. […]

[2] = Enzyme activity ratio (Y1)=Vmax1/Vmax2 of conversion enzyme (Lineweaver-Burk); type: biochemical; conditions: each
Excerpt: In the present invention, in the case where ribonucleoside diphosphate conversion enzyme (D) is used, an enzyme activity ratio (Y1) calculated from the following formula (1) using enzyme activity Vmax1 and enzyme activity Vmax2 described below is preferably not lower than 0.1 in terms of efficient polysaccharide production and efficient use of the substrate (ribonucleoside diphosphate-monosaccharide (A)). Enzyme activity ratio (Y1)=Vmax1/Vmax2 (1) • Enzyme activity Vmax1: the enzyme activity of ribonucleoside diphosphate conversion enzyme (D) on ribonucleoside diphosphate. • Enzyme activity Vmax2: the enzyme activity of ribonucleoside diphosphate conversion enzyme (D) on ribonucleoside diphosphate-monosaccharide (A).
An enzyme reaction solution (II) containing specific amounts of substrate (ribonucleoside diphosphate or uridine diphosphate-monosaccharide (A)), enzyme (polysaccharide synthase (B) or ribonucleoside diphosphate conversion enzyme (D)), pH adjuster (K), and water is prepared, which is adjusted to a specific temperature and a specific pH. • Phosphate-containing compound (F) is added, if necessary, to the enzyme reaction solution (II) if the enzyme to be used is (D4). Reducing agent (d6) is added if the enzyme is (D6), and raw material (d7) of nucleotide sugar is added if the enzyme is (D7).
After preparation of the enzyme reaction solution (II), it is allowed to stand for enzyme reaction for 1 minute to 100 hours. Next, the amount (X) of the reaction product obtained from the reaction is measured to determine the initial enzyme reaction velocity v. Likewise, the initial enzyme reaction velocity v is determined, using the enzyme reaction solution (II) having a different substrate concentration. A Lineweaver-Burk plot is generated from the above-obtained initial enzyme reaction velocity v and substrate concentration, and the enzyme activity Vmax is determined therefrom.
The enzyme activity Vmax (M/s) is determined using Lineweaver-Burk plot derived from Michaelis-Menten kinetics. […]
In the above measurement, the result determined using ribonucleoside diphosphate conversion enzyme (D) as an enzyme and ribonucleoside diphosphate as a substrate represents Vmax1, and the result determined using ribonucleoside diphosphate conversion enzyme (D) as an enzyme and ribonucleoside diphosphate-monosaccharide (A) as a substrate represents Vmax2. In the case where two or more types of ribonucleoside diphosphate-monosaccharide (A) are used, Vmax2 is determined for each ribonucleoside diphosphate-monosaccharide (A). The enzyme activity ratio (Y1) is also determined for each type from formula (1) using each Vmax2. […]
Enzyme reaction solution (II-1) was prepared by adding the following to 1 mL of aqueous solution P (50 mM phosphate buffer (pH of 7.0) containing 100 mM sodium chloride and 10 mM magnesium chloride): a substrate (uridine diphosphate) to a concentration of 0.5 mM in the solution, sucrose (available from Wako Pure Chemical Industries, Ltd.) to a concentration of 100 mM in the solution, and 1 μL of sucrose synthase aqueous solution (D7-1). […] Enzyme reaction solution (II-1) was allowed to stand at 30° C. for enzyme reaction for 30 minutes while measuring the amount of the reaction product (uridine diphosphate-glucose) using HPLC at 5-minute intervals, and the initial enzyme reaction velocity v was calculated. […]

[3] = Vmax2 substrates UDP-glucuronic acid, -N-acetylglucosamine, -N-acetylgalactosamine, -glucose, -mannose, -glucosamine
[4] = Vmax2 substrates uridine diphosphate-glucuronic acid and uridine diphosphate-N-acetylglucosamine

Molecule	specific activity [1] [U/μL]	enzyme activity ratio (Y1) of each type [2, 3]	enzyme activity ratio (Y1) of each type [2, 4]
B1	0.3	≥ 10	
B2	0.3	≥ 10	
B3	0.3		≥ 10
B4	0.3		≥ 10
B5	0.3		≥ 10
